B1: Hairpin Ribozyme (parent)
chain: GUCCUCUUUCACGUGCGCGUGAAAGAGAGAAGUGAACCAGAGAAACACACGUUGUGGUAUAUUACCUGGUA

Variants of: B1
Assay: self-cleavage, relative activity (ratio to wild type); higher = more cleavage; co-transcriptional

Variant | self-cleavage
G32C C37G | 0.15
G32A A64C | 0.14
G32U U70C | 0.138
G32U U70G | 0.108
G32A G69C | 0.163
G32C U70A | 0.0808
G32U A64U | 0.126
G32U A64G | 0.162
G32U A64C | 0.258
A31G G32A | 0.0999
A31G G32C | 0.0299
G32C C46U | 0.109
A31U A36G | 0.151
A31U A36C | 0.197
U33A G42U | 0.181
U33A G42A | 0.168
U33C A36G | 0.0993
G32U C48A | 0.0918
G32U C48U | 0.15
U33C C66U | 0.149
A31U C48A | 0.166

Variant | self-cleavage
G32U G57A | 0.139
G32U G57C | 0.129
G32C A35C | 0
U33A G68C | 0.138
U33A G68A | 0.161
A31U G42C | 0.0816
U33A G40C | 0.0171
A31U U58C | 0
G32A U67G | 0.0549
A31U G40A | 0.117
U33G G34C | 0.337
U33A U70A | 0.0761
A31U U60A | 0.0868
U33A U62C | 0.184
G32A U60A | 0.191
G32A U63A | 0.132
G32A C38G | 0.1
G34A A36U | 0.832
G34A A36G | 1.19
G32C C66A | 0.0957
A31G U52A | 0.764

Variant | self-cleavage
A31G U52C | 0.508
A31G U52G | 0.4
A31G U67C | 0.118
A31G G34A | 1.12
U33C U63A | 0.142
A31G C37G | 0.162
A31G C37A | 0.158
G32U U67C | 0.0935
G32U G56C | 0.152
G32U U60C | 0.0374
G32U U60A | 0.17
U33C U55A | 0.0653
G32C A36G | 0.0754
G32C A36U | 0.136
U33A G51U | 0.129
U33A G51A | 0.177
G32U U53A | 0.126
A31U A59U | 0.201
A31U A59C | 0.0285
U33C G51C | 0.0825
G32C U55C | 0.0178

Variant | self-cleavage
A31U G51C | 0.15
G32C C48U | 0.169
A31G A49U | 0.11
U33C C38U | 0.0575
A31U A35U | 0.162
A31U A35C | 0.185
G32U G54U | 0.0884
G32U G54A | 0.105
G32U G40A | 0.122
A31G A36C | 0.363
A31G A36U | 0.306
G32A A41U | 0.396
A31U A47G | 0.101
A31U U55G | 0.089
A31C U70G | 0.0868
U33G G40C | 0.0649
U33G G40U | 0.0849
U33G G40A | 0.245
G32C G40U | 0.086
A31C U62C | 0.0677
U33A U52G | 0.111

Reference: the RNAGym collection of RNA variant scans (doi:10.7554/elife.80360)
